Source: patent publication US20240269306A1 (MERSANA THERAPEUTICS, published 2024)

Legend:
[1] = biological target: T1, Human B7-H4 on the cell surface (MX-1, HCC1569, CAMA-1 cells); HEK-293 cells stably transfected with human … (human, UniProt Q7Z7D3 25-282); assay: flow cytometry, MX-1 cells
T1 construct: The cell line of each result is named under assay or readout; also called cell surface B7-H4
T1 sequence: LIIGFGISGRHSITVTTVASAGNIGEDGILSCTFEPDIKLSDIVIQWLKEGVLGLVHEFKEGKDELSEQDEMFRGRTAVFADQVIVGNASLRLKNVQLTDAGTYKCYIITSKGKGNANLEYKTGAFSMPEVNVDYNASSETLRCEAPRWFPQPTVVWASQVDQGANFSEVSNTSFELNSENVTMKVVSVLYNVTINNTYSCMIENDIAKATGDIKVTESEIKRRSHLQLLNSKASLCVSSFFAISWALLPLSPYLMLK

[2] = biological target: T2, Recombinant human B7-H4 protein (R&D Systems #6576-B7-050) (human, UniProt Q7Z7D3 29-258); assay: ELISA, coated recombinant human B7-H4
T2 construct: Bought protein
T2 sequence: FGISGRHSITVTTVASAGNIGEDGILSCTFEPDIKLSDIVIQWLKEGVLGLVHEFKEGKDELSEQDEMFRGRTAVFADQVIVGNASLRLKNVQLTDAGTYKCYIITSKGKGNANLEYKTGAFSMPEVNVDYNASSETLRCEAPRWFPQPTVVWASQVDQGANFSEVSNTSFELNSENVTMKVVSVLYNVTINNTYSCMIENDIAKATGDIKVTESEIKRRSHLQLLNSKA

[3] = biological target: T2, Recombinant human B7-H4 protein (R&D …); assay: ELISA, coated recombinant human B7-H4; remark: listed apart in the source
[4] = biological target: T2, Recombinant human B7-H4 protein (R&D …); assay: ELISA, coated recombinant human B7-H4; remark: listed apart in the source
[5] = biological target: T3, Rat B7-H4 protein (R&D Systems 10085-B7) (rat, UniProt Q501W4 29-257, limits assumed); assay: ELISA, coated rat B7-H4, mean of two studies
T3 construct: Bought protein
T3 sequence (looked up): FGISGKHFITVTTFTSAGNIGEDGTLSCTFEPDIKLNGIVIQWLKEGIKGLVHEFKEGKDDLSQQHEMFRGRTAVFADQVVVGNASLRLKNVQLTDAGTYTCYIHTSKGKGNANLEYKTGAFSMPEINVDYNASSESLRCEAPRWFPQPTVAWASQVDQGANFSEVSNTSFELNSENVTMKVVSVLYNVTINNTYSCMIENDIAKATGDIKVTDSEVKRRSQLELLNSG

[6] = biological target: T2, Recombinant human B7-H4 protein (R&D …); assay: ELISA, coated human B7-H4, mean of two studies
[7] = biological target: T4, Mouse B7-H4 protein (Creative Biomart; VTCN1-1519R) (mouse, UniProt Q7TSP5 25-257); assay: ELISA, coated mouse B7-H4, mean of two studies
T4 construct: Bought protein
T4 sequence (looked up): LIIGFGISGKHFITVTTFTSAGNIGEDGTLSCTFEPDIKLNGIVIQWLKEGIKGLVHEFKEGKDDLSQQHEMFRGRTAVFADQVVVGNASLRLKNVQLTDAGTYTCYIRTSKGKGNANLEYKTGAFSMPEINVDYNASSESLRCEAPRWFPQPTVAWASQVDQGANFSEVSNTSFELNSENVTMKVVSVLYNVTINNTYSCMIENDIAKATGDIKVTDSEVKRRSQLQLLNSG

[8] = biological target: T5, Monkey B7-H4 protein (Creative Biomart; VTCN1-1519R) (monkey); assay: ELISA, coated monkey B7-H4, mean of two studies
T5 construct: Bought protein

[9] = biological target: T1, Human B7-H4 on the cell surface (MX-1, …); assay: flow cytometry, MX-1 cells, mean of two experiments
[10] = biological target: T1, Human B7-H4 on the cell surface (MX-1, …); assay: flow cytometry, HEK-293 cells stably transfected with human B7-H4, mean of two experiments

B1: Palivizumab (antibody, V domains shown)
VH: QVTLRESGPALVKPTQTLTLTCTFSGFSLSTSGMSVGWIRQPPGKALEWLADIWWDDKKDYNPSLKSRLTISKDTSKNQVVLKVTNMDPADTATYYCARSMITNWYFDVWGAGTTVTVSS
VL: DIQMTQSPSTLSASVGDRVTITCKCQLSVGYMHWYQQKPGKAPKLLIYDTSKLASGVPSRFSGSGSGTEFTLTISSLQPDDFATYYCFQGSGYPFTFGGGTKLEIK
With B1 the EC50 [1] was > 200 nM, the EC50 [2] was > 100 nM and the EC50 [3] was > 100 nM. The EC50 [4] was > 100 nM, the EC50 [5] was > 100 nM and the EC50 [6] was > 100 nM. For the same binder, the EC50 [7] was > 100 nM, the EC50 [8] was > 100 nM and the EC50 [9] was > 100 nM. The EC50 [10] was > 100 nM.
